The target in test [1] is T1, S. pombe Hop2 (Meu13), His-tagged, from pET28b, co-expressed and co-purified with Mnd1 (S. pombe, UniProt Q9HGK2 1-216).
T1 sequence: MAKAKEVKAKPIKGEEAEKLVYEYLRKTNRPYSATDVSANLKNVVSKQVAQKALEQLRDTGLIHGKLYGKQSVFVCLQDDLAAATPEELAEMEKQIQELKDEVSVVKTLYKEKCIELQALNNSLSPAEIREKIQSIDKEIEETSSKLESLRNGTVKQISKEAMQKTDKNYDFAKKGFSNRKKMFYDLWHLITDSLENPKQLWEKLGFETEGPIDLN
As to the kind of experiment: co-elution in ion-exchange chromatography.

In test [2] the target is T2, S. pombe Hop2-Mnd1 complex, purified, His-tagged (S. pombe, UniProt Q9HGK2;Q09739).
T2 sequence 1: T1 sequence
T2 sequence 2: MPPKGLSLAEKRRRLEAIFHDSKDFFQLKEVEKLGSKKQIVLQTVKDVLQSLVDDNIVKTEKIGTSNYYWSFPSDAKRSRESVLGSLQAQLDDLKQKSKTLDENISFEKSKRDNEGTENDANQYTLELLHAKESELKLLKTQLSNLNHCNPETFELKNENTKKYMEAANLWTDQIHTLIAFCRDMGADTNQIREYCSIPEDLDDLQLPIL
As to the kind of experiment: pull-down.

B1: S. pombe Mnd1 (Mcp7), His-tagged, from pET16b, co-expressed and co-purified with Hop2 (natural protein)
chain: T2 sequence 2
With B1, the binding result in test [1] is on record as “binds”.

B2: S. pombe Dmc1, purified (natural protein)
chain: MEEFAEGNDDEQMIFSDIEDLTAHGIGMTDIIKLKQAGVCTVQGVHMSTKRFLLKIKGFSEAKVDKLKEAASKMCPANFSTAMEISQNRKKVWSISTGSEALNGILGGGIQSMSITEVFGEFRCGKTQMSHTLCVTAQLPRDMGGAEGKVAFIDTEGTFRPDRIKAIAERFGVDADQAMENIIVSRAYNSEQQMEYITKLGTIFAEDGQYRLLIVDSIMALFRVDYSGRGELSERQQKLNIMLARLNHISEEFNVAVFVTNQVQADPGAAMMFASNDRKPVGGHVMAHASATRLLLRKGRGEERVAKLNDSPDMPEAECSYVITPGGIADVS
Take B2: the binding result in test [2] is “binds”.

B3: S. pombe Rad51, purified (natural protein)
chain: MADTEVEMQVSAADTNNNENGQAQSNYEYDVNVQDEEDEAAAGPMPLQMLEGNGITASDIKKIHEAGYYTVESIAYTPKRQLLLIKGISEAKADKLLGEASKLVPMGFTTATEYHIRRSELITITTGSKQLDTLLQGGVETGSITELFGEFRTGKSQICHTLAVTCQLPIDMGGGEGKCLYIDTEGTFRPVRLLAVADRYGLNGEEVLDNVAYARAYNADHQLELLQQAANMMSESRFSLLVVDSCTALYRTDFSGRGELSARQMHLARFMRTLQRLADEFGIAVVITNQVVAQVDGISFNPDPKKPIGGNILAHSSTTRLSLRKGRGEQRICKIYDSPCLPESEAIFAINSDGVGDPKEIIAPV
Take B3: the binding result in test [2] is “binds”.

Source of the values: paper PMC1885673 (Nucleic Acids Research, 2007).
